How the values were obtained:
[1] = tested on: mouse anti-TGF-β1 monoclonal antibody, 1D11; assay: ELISA measured binding activity (immunoreactivity) of TGF-β1; settings: solution without alginate, up to 0.14% w/v additive
Experimental: The ability of released TGF-β1 from both untreated and acid treated beads (as described above) to be recognized (bound) by a monoclonal antibody was assayed by ELISA as follows. An enzyme linked immunosorbent assay (ELISA) was used to quantitate the amount of immunoreactive TGF-β1 released from the untreated (PBS) and acid treated (HCl) alginate beads. The ELISA was based on the ability of a mouse anti-TGF-β1 monoclonal antibody, 1D11 (Bristol-Myers Squibb, Seattle, WA), to bind to the TGF-β1 molecule. When the 1D11 antibody was coated on 96-well immunoassay plates it captured TGF-β1 from the applied sample and standard solutions. Captured TGF-β1 was then bound by biotinylated 1D11 antibody which in turn was bound by a horseradish peroxidase/avidin D conjugate (Vector Labs cat #A-2004). A color reaction occurred by adding a chromophore/substrate solution of 3,3',5,5'-tetramethylbenzidine in CPB containing hydrogen peroxide. The reaction was stopped with the addition of 1 N sulfuric acid and the A450 was determined by a plate reader. Concentrations of the unknown samples were quantified relative to a TGF-β1 standard curve run on the same plate.
The immunoreactivity of TGF-β1 in solution in the presence of anionic amino acids, polyanions and polycations was studied using the ELISA procedure described in Example 2. To 1 mg/mL solutions of TGF-β1 in 5 mM HCl was added from 0 to 0.14%(w/v) of glutamic acid, aspartic acid, poly-L-aspartic acid (PLAA, Mw=13 kDa), sodium carboxymethyl cellulose (Na CMC, high viscosity), or polyacrylic acid (PAA, 2, 90 or 750 kDa). The reactivity of the TGF-β1 was then determined by the ELISA procedure, as described in Example 2.
Next, the ability of the additives to […] was investigated. Alginate solutions were prepared in accordance with the procedure of Example 1, incorporating 50 μg of TGF-β1, 0-0.15% (w/v) of sodium alginate and 0.1-1.0 mg (up to 0.125% w/v) of PAA (750 kDa), PLAA (13 kDa), NaCMC high viscosity or glutamic acid. The immunoreactivity of TGF-β1 was determined by ELISA as described in Example 2.
Alginate beads were prepared according to the procedure of Example 1 incorporating 50 μg TGF-β1 and 0.1-1.0 mg of additives. […] In addition, Poly-L-Lysine (PLL;123 kDa) was incorporated as a potential polycationic competitor. The additives were incorporated at an alginate:additive w/w ratio of from 75:10 to 75:1 as indicated below in Table 3.
To further assess the effect of amount of PAA incorporation on immunoreactivity of released TGF-β1, alginate beads were prepared by incubating TGF-β1 and PAA (90 kDa) for either 5 or 60 minutes (see FIG. 7) in w/w ratios of 75:1, 75:6 and 75:10, followed by dilution, addition of alginate, and bead formation in 1% CaCl2. The beads were acid treated in 0.1 N HCl at 37° C. for 30 minutes and then incubated at 37° C. in PBS, pH 7.4.

gastrointestinal tract = settings: sequential chemotherapeutic protocols; cited from earlier work
[2] = tested on: cells of epithelial origin, including human and rodent derived intestinal cells; settings: cited from earlier work
[3] = format: physicochemical
Experimental: Beads prepared in accordance with the procedure of Example 1 and containing 50 μg of ^125 I-TGF-β1 in 3.75-7.5 mg (original weight of alginate) were transferred to 15.0 mL polypropylene tubes containing 13.0 mL of PBS or of 0.1 N HCl at 37° C. In some cases, 1% BSA was added to the release media. The polypropylene tubes were gently shaken using a orbital shaker (200 rotations/minutes). At selected times, 100 μL aliquots were taken and counted for radioactivity. Care was taken so that aliquots contained no beads or bead fragments. The cumulative ^125 I-TGF-β1 released from the beads was calculated after correcting for volume changes. After 24 hours, the beads in 0.1 N HCl were transferred to PBS.
Alginate beads containing TGF-β1 and 90 kDa PAA (75:10 w/w in alginate:PAA) were prepared following the procedure of Example 1, and were acid treated for 30 minutes at 37° C. in 0.1 N HCl, as described in Example 2. The beads were then placed in PBS, pH 7.4, and the immunoreactivity of released TGF-β1 was determined by ^125 I radiolabel and ELISA, as described in Example 2. In addition, a growth inhibitory assay (GIA) was used to determine the bioactivity of the TGF-β1. The GIA measures the ability of TGF-β1 to inhibit the growth of mink lung epithelial cells (ATCC #CCL64) (T. Ikedaet al., "Human Transforming Growth Factor Type β2: Production By a Prostatic Adenocarcinoma Cell Line, Purification and Initial Characterization," Biochemistry 26:2406-2410 (1987)). The activity of the growth factor was determined by the inhibitory response of the cells to different concentrations of TGF-β1. Cell viability was based on the enzymatic cleavage by metabolically active cells of a tetrazolium salt into an orange/red formazan product. Prior to the assay cells were trypsinized and plated in a 96-well flat bottomed plate (Costar) at a concentration of 1000 cells/well. After allowing the cells to attach, samples containing the TGF-β1 and a reference standard were diluted to concentrations ranging from 1000 to 1.95 pg/ml and added to the wells. The cells were incubated for four days after which time a 100 μL solution containing 25 μg of sodium 3"-[1-(phenylamino)-carbonyl]-3,4-tetrazolium-bis(4-methoxy-6-nitro) benzene sulfonic acid hydrate (Diagnostic Chemicals, Ltd.) and 5 mM phenazine methosulfate (Aldrich) in media was added to each well. The cells were then incubated for 7 hours and the plates read on a microplate reader at an absorbance of 450 nm with a 630 nm reference filter. The specific activity of a sample was calculated relative to the reference material.

[4] = tested on: mouse anti-Oncostatin-M antibody, 11R2; assay: ELISA of immunoreactive Oncostatin-M released from alginate beads; format: binding; settings: PBS
Experimental: Following the procedure of Example 1, alginate beads were prepared from 800 μl of an aqueous solution containing 25 μg of Oncostatin-M (site source) and 3750 μg of sodium alginate (Sigma, Low Viscosity). To a portion of the solution was added 300 μg of PAA (Jannsen, 90 kDa) prior to bead formation. Samples of the beads, both with and without added PAA, were subject to acid treatment by incubating the beads in 0.1 N HCl at 37° C. for 30 minutes, as described in Example 2. The beads were then placed in PBS, and the percentage amount of immunoreactive Oncostatin-M was determined by ELISA assay following the procedure of Example 2 using a mouse anti-Oncostatin-M antibody, 11R2 (Bristol-Myers Squibb, Seattle, WA) as the capture antibody and biotinylated 1R10 mouse anti-Oncostatin-M antibody (Bristol-Myers Squibb, Seattle, WA) as the probe, followed by horseradish peroxidase/avidin D. The results are shown in FIG. 8, in which (.quadrature.) represents acid treated beads containing PAA, represents bead containing PAA which were not acid treated, represents beads without PAA which were acid treated, and represents beads without PAA which were not acid treated.

[5] = tested on: mouse antiamphiregulin monoclonal antibody, 6R1C1; assay: ELISA of immunoreactive Amphiregulin released from alginate beads; format: binding; settings: PBS
Experimental: The procedure of Example 10 was repeated substituting 25 μg of Amphiregulin for the Oncostatin-M of Example 11 and using a mouse antiamphiregulin monoclonal antibody, 6R1C1 (Bristol-Myers Squibb, Seattle, WA) as the capture antibody, followed by a goat anti-mouse horseradish peroxidase probe (Southern Biotech). The results are shown in FIG. 9 in which the symbols have the meanings of FIG. 8.

N[C@@H](CC(=O)O)C(=O)O [aspartic acid, L-aspartic acid, reference compound]
Interference of additive with ELISA measured binding activity of TGF-β1 [1]: interfered to a lesser extent

Nc1ccn([C@@H]2O[C@H](CO)[C@@H](O)[C@@H]2O)c(=O)n1 [cytosine arabinoside]
Gastrointestinal toxic alterations (gastrointestinal tract): surface and glandular epithelial atypia, immaturity and necrosis

O=c1[nH]c(=O)n([C@H]2C[C@H](O)[C@@H](CO)O2)cc1F [floxuridine]
Gastrointestinal toxic alterations (gastrointestinal tract): surface and glandular epithelial atypia, immaturity and necrosis

N[C@@H](CCC(=O)O)C(=O)O [glutamic acid, L-glutamic acid, reference compound]
Interference of additive with ELISA measured binding activity of TGF-β1 [1]: interfered to a lesser extent

CO[C@@]12[C@H](COC(N)=O)C3=C(C(=O)C(C)=C(N)C3=O)N1C[C@@H]1N[C@@H]12 [mitomycinC]
Gastrointestinal toxic alterations (gastrointestinal tract): surface and glandular epithelial atypia, immaturity and necrosis

TGF-β
Growth inhibition [2]: inhibit the growth of many cells of epithelial origin

^125 I-TGF-β1: TGF-β1 radioiodinated by a modified chloramine-T method
125I-TGF-β1 released in 0.1 N HCl ([3]; 0.1 N HCl, 24 hours, 37° C.): essentially no | Further 125I-TGF-β1 release ([3]; PBS, even after 72 hours): no further ^125 I-TGF-β1 was released | Lag period before release ([3]; PBS, pH 7.4, 37° C.): 4 h | Cumulative 125I-TGF-β1 released (plateau) ([3]; PBS, pH 7.4, 37° C., after 20 hours, no acid treatment, no PAA): 81% | 125I-TGF-β1 released after transfer from 0.1 N HCl to PBS ([3]; transferred to PBS after 24 hours in 0.1 N HCl, in 2.5 hours): 100%

B1: Oncostatin-M: 25 μg of Oncostatin-M encapsulated in alginate beads with or without PAA (protein, UniProt P13725 26-221, looked up)
Oncostatin-M: AAIGSCSKEYRVLLGQLQKQTDLMQDTSRLLDPYIRIQGLDVPKLREHCRERPGAFPSEETLRGLGRRGFLQTLNATLGCVLHRLADLEQRLPKAQDLERSGLNIEDLEKLQMARPNILGLRNNIYCMAQLLDNSDTAEPTKAGRGASQPPTPTPASDAFQRKLEGCRFLHGYHRFMHSVGRVFSKWGESPNRSRR
modifications: alginate bead encapsulation
notes: 25 μg of Oncostatin-M encapsulated in alginate beads with or without PAA
Immunoreactive Oncostatin-M released, acid treated beads containing PAA ([4]; PAA 90 kDa): 85% | Immunoreactive Oncostatin-M released, non acid treated beads containing PAA ([4]; PAA 90 kDa): 38% | Immunoreactive Oncostatin-M released, "non acid treated beads with PAA" (second value) [4]: 20% | Immunoreactive Oncostatin-M released, acid treated beads without PAA [4]: 18%

B2: Amphiregulin: 25 μg of Amphiregulin encapsulated in alginate beads with or without PAA (protein, UniProt P15514 101-187, looked up)
Amphiregulin: SVRVEQVVKPPQNKTESENTSDKPKRKKKGGKNGKNRRNRKKKNPCNAEFQNFCIHGECKYIEHLEAVTCKCQQEYFGERCGEKSMK
modifications: encapsulated in alginate beads
notes: 25 μg of Amphiregulin encapsulated in alginate beads with or without PAA
Immunoreactive Amphiregulin released, acid treated beads containing PAA [5]: 67% | Immunoreactive Amphiregulin released, acid treated beads without PAA [5]: 31% | Immunoreactive Amphiregulin released, non acid treated beads containing PAA [5]: 52% | Immunoreactive Amphiregulin released, non acid treated beads without PAA [5]: 22%

Source: patent US5451411A, “Methods and compositions for the oral delivery of therapeutic agents” (University of Washington, priority 1993, dated 1995)
